PMC5048913

Experiments:
Assay in all cases: split reporter
[1] = target: Yn-fused MDM2, wild type (FLAG-tagged MDM2-Yn) (UniProt Q00987)
[2] = target: M2-dAZ-Yn (Yn-fused MDM2 deleted of the AZ domain) (UniProt Q00987)
[3] = target: M2-dIAZ-Yn (Yn-fused MDM2 deleted of the I1 and AZ domains) (UniProt Q00987)

Chain of Yc-fused NS, wild type (Myc-tagged NS-Yc) (Q9BVP2 whole entry, the tested form may be a part): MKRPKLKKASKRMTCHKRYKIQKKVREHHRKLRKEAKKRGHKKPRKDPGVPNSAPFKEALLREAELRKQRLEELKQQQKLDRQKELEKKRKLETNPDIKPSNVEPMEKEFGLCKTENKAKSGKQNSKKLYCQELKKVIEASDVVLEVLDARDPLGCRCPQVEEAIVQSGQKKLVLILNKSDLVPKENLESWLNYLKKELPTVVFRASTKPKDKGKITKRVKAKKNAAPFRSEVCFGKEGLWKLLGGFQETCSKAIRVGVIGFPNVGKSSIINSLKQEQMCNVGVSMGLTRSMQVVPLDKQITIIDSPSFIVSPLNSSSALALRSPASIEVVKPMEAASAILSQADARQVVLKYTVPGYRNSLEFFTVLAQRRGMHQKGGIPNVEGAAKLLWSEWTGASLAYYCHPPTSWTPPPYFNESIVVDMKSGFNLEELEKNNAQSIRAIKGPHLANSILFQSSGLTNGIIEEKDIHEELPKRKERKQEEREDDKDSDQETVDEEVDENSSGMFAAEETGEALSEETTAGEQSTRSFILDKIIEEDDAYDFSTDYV
Chain of NS-GI-Yc (Yc-fused NS deleted of the BC and A domains) (Q9BVP2 116-464, stated change not applied): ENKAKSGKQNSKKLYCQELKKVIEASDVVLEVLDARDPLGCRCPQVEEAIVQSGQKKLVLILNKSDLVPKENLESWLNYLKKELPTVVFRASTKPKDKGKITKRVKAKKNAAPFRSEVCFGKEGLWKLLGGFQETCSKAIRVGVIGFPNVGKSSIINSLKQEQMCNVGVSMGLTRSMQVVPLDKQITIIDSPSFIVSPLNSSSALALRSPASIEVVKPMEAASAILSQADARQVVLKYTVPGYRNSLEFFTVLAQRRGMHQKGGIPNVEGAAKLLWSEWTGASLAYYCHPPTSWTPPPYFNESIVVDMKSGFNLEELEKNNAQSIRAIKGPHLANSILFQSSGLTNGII

BiFC efficiency (percent YFP+ cells in the CFP+ population) [1] [%]	BiFC efficiency (percent YFP+ cells in the CFP+ population) [2] [%]	BiFC efficiency (percent YFP+ cells in the CFP+ population) [3] [%]	Substance
27.2			NS-GI-Yc (Yc-fused NS deleted of the BC and A domains) (from UniProt Q9BVP2 116-464) (domain or fragment)
48.7	15	9.4	Yc-fused NS, wild type (Myc-tagged NS-Yc) (from UniProt Q9BVP2 1-549) (natural protein)
